Assay results taken from patent publication US20070060522A1 (ENSION, published 2007).

B1: Peptide 1 (P1), NNQKIVNLKEKVAQLEA (peptide)
peptide: NNQKIVNLKEKVAQLEA
notes: Synthetic peptide (Sigma-Genosys, 50% purity)
B2: Peptide 2 (P2), YKSMKKTTMKIIPFNRLTIF (peptide)
peptide: YKSMKKTTMKIIPFNRLTIF
notes: Synthetic peptide

Tests used:
[1] = target: T1, CD54 (ICAM-1) on A375 human melanoma cells (human, UniProt P05362 28-532); assay: inferred from peptide blocking of monocyte/tumor cell adherence
T1 construct: whole, on cells; also called intercellular adhesion molecule-1

[2] = target: αMβ2 (Mac-1; CD11b/CD18) on human peripheral blood monocytes (human, UniProt P11215 17-1152; P05107 23-769); assay: inferred from peptide blocking of monocyte/A375 adherence under flow
Method: Pre-treatment of tumor cells with P1 and monocytes with sFn or tumor cells with sFn and monocytes with P2 inhibited adherence to a similar level to that of sFn treatment of both cells (P>0.05 to fibrin; n=5 in each case).
Peptide Blocking of Cellular Adherence: After fluorescence labeling of each cell type, stock peptides were added to both confluent coverslips and/or 1 milliliter suspensions of monocytes (P1 and P2) and/or sFn solution (P3 and P4) for a final treatment concentration of 4 mM (4 uL added to 1 mL suspension). Cells were treated with peptides for 20 minutes at room temperature, followed directly by washing of cells (by centrifugation and resuspension—monocytes, or perfusion with RPMI 1640 for 10 min—tumor cells). For sFn peptide treatment, peptides remained in the sFn solution during incubation. Monocyte adherence to tumor cells under flow conditions was then performed as described above.

T1 sequence (P05362 28-532): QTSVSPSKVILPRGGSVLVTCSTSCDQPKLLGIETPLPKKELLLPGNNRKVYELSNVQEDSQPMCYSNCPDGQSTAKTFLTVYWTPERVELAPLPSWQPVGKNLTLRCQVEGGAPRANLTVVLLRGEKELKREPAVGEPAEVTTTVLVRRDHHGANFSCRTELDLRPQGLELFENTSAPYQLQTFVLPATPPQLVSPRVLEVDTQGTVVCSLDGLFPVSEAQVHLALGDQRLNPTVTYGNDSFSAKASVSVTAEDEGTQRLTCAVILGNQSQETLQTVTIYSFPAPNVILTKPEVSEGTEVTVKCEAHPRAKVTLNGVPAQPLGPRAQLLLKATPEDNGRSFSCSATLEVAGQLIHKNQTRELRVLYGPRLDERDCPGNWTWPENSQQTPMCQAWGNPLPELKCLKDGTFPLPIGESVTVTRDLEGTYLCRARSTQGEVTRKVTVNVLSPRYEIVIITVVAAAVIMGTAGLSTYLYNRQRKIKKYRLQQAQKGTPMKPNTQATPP

binding result [1]	binding result [2]	Binder
binds		B1
	binds	B2
